Data from publication PMC3983244, “Location of Dual Sites in E. coli FtsZ Important for Degradation by ClpXP; One at the C-Terminus and One in the Disordered Linker” (PLoS ONE, 2014).
Each block holds one molecule with its values, some of them ahead of it.

Legend:
[1] = molecular target: FtsZ(Δ380-383) (E. coli) (UniProt P0A9A6)
[2] = molecular target: E. coli FtsZ (wild type) (E. coli) (UniProt P0A9A6)
[3] = molecular target: FtsZ(R379E) (E. coli) (UniProt P0A9A6)
[4] = molecular target: FtsZ(Δ375-383) (E. coli) (UniProt P0A9A6)
[5] = molecular target: FtsZ(K380A) (E. coli) (UniProt P0A9A6)
[6] = molecular target: FtsZ(F377A) (E. coli) (UniProt P0A9A6)
[7] = molecular target: FtsZ(P375G) (E. coli) (UniProt P0A9A6)
[8] = molecular target: E. coli FtsZ (wild type) (E. coli) (UniProt P0A9A6); remark: listed apart in the source
[9] = molecular target: the molecule itself; assay: 90° light scattering; 8 µM FtsZ wild type or mutant in assembly buffer, polymerisation after addition of 1 mM GTP; self-association into polymers
[10] = molecular target: T1, ClpX(E185Q) (E. coli, UniProt P0A6H1 1-424, E185Q); assay: co-sedimentation; 250 pmol FtsZ wild type or mutant polymerised with 2 mM GTP in assembly buffer (50 mM MES pH 6.5, 50 mM KCl, 10 mM MgCl2) with acetate kinase and acetyl phosphate; 1.5, 5.0 or 12.5 pmol ClpX(E185Q) and 4 mM ATP added, 25 µl, 10 min; 129,000×g 30 min; SDS-PAGE, Coomassie, densitometry; background without GTP subtracted; conditions: both partners purified
T1 construct: ClpX, Escherichia coli, ATP hydrolysis defective mutant E185Q; Concentrations are reported for ClpX hexamers; also called ATP hydrolysis defective mutant of ClpX

[11] = molecular target: the molecule itself; assay: negative-stain electron microscopy; FtsZ mutant proteins (5 µM) incubated with GTP, negative staining with uranyl acetate; filaments

Molecule: E. coli ClpX (wild type) (from UniProt P0A6H1 1-424) (enzyme)
reduction of the rate of degradation by ClpXP against wild type FtsZ, in the absence of GTP [1]: 65%
reduction of the rate of degradation by ClpXP against wild type FtsZ, in the presence of GTP [1]: 75%
rate of degradation of fluorescent FtsZ (10 µM) by ClpXP (1 µM) in the absence of GTP, ultrafiltration assay [2]: 0.11 min⁻¹
rate of degradation of fluorescent FtsZ (10 µM) by ClpXP (1 µM) in the presence of GTP, ultrafiltration assay [2]: 0.2 min⁻¹
reduction of the rate of degradation by ClpXP against wild type FtsZ, in both the presence and absence of GTP [3]: 75%
reduction of the rate of degradation by ClpXP against wild type FtsZ, in the absence of GTP [4]: 65%
reduction of the rate of degradation by ClpXP against wild type FtsZ, in the presence of GTP [4]: 75%
reduction of the rate of degradation by ClpXP against wild type FtsZ, in both the presence and absence of GTP [5]: 55%
reduction of the rate of degradation by ClpXP against wild type FtsZ, in the presence of GTP (no similar reduction without GTP) [6]: 50%
reduction of the rate of degradation by ClpXP against wild type FtsZ, in the presence of GTP (no similar reduction without GTP) [7]: 50%

B1: MinC (natural protein)
chain: MSNTPIELKGSSFTLSVVHLHEAEPKVIHQALEDKIAQAPAFLKHAPVVLNVSALEDPVNWSAMHKAVSATGLRVIGVSGCKDAQLKAEIEKMGLPILTEGKEKAPRPAPTPQAPAQNTTPVTKTRLIDTPVRSGQRIYAPQCDLIVTSHVSAGAELIADGNIHVYGMMRGRALAGASGDRETQIFCTNLMAELVSIAGEYWLSDQIPAEFYGKAARLQLVENALTVQPLN
inhibition of degradation of fluorescent FtsZ (5 µM, with GTP) by ClpXP (0.5 µM) at 2, 5, 10 and 20 µM MinC; the pair that is blocked: FtsZ with ClpX (ClpXP) [8]: 80%

B2: FtsZ(Δ380-383) (domain or fragment, E. coli, UniProt P0A9A6 1-379, looked up)
chain: MFEPMELTNDAVIKVIGVGGGGGNAVEHMVRERIEGVEFFAVNTDAQALRKTAVGQTIQIGSGITKGLGAGANPEVGRNAADEDRDALRAALEGADMVFIAAGMGGGTGTGAAPVVAEVAKDLGILTVAVVTKPFNFEGKKRMAFAEQGITELSKHVDSLITIPNDKLLKVLGRGISLLDAFGAANDVLKGAVQGIAELITRPGLMNVDFADVRTVMSEMGYAMMGSGVASGEDRAEEAAEMAISSPLLEDIDLSGARGVLVNITAGFDLRLDEFETVGNTIRAFASDNATVVIGTSLDPDMNDELRVTVVATGIGMDKRPEITLVTNKQVQQPVMDRYQQHGMAPLTQEQKPVAKVVNDNAPQTAKEPDYLDIPAFLR
notes: also called deletion mutant that lacks the C-terminal four amino acid variable region; source: E. coli BL21 (λDE3), purified like wild type FtsZ
binding result [9]: binds

B3: E. coli FtsZ (wild type) (natural protein, UniProt P0A9A6 1-383, looked up)
chain: MFEPMELTNDAVIKVIGVGGGGGNAVEHMVRERIEGVEFFAVNTDAQALRKTAVGQTIQIGSGITKGLGAGANPEVGRNAADEDRDALRAALEGADMVFIAAGMGGGTGTGAAPVVAEVAKDLGILTVAVVTKPFNFEGKKRMAFAEQGITELSKHVDSLITIPNDKLLKVLGRGISLLDAFGAANDVLKGAVQGIAELITRPGLMNVDFADVRTVMSEMGYAMMGSGVASGEDRAEEAAEMAISSPLLEDIDLSGARGVLVNITAGFDLRLDEFETVGNTIRAFASDNATVVIGTSLDPDMNDELRVTVVATGIGMDKRPEITLVTNKQVQQPVMDRYQQHGMAPLTQEQKPVAKVVNDNAPQTAKEPDYLDIPAFLRKQAD
notes: FtsZ, Escherichia coli, wild type; Unlabelled in the co-sedimentation assay; labelled with Alexa fluor succinimidyl ester (0.5-5.0 mol/mol) in the degradation reactions; Assembles into polymers with GTP; also called wild type FtsZ
binding result [10]: binds
binding result [9]: binds

B4: FtsZ(K380A) (natural protein, E. coli, UniProt P0A9A6 1-383, looked up)
chain: MFEPMELTNDAVIKVIGVGGGGGNAVEHMVRERIEGVEFFAVNTDAQALRKTAVGQTIQIGSGITKGLGAGANPEVGRNAADEDRDALRAALEGADMVFIAAGMGGGTGTGAAPVVAEVAKDLGILTVAVVTKPFNFEGKKRMAFAEQGITELSKHVDSLITIPNDKLLKVLGRGISLLDAFGAANDVLKGAVQGIAELITRPGLMNVDFADVRTVMSEMGYAMMGSGVASGEDRAEEAAEMAISSPLLEDIDLSGARGVLVNITAGFDLRLDEFETVGNTIRAFASDNATVVIGTSLDPDMNDELRVTVVATGIGMDKRPEITLVTNKQVQQPVMDRYQQHGMAPLTQEQKPVAKVVNDNAPQTAKEPDYLDIPAFLRAQAD
notes: FtsZ, Escherichia coli, substitution K380A; source: E. coli BL21 (λDE3), purified like wild type FtsZ
binding result [9]: binds

B5: FtsZ(356AAA) (natural protein, E. coli, UniProt P0A9A6 1-383, looked up)
chain: MFEPMELTNDAVIKVIGVGGGGGNAVEHMVRERIEGVEFFAVNTDAQALRKTAVGQTIQIGSGITKGLGAGANPEVGRNAADEDRDALRAALEGADMVFIAAGMGGGTGTGAAPVVAEVAKDLGILTVAVVTKPFNFEGKKRMAFAEQGITELSKHVDSLITIPNDKLLKVLGRGISLLDAFGAANDVLKGAVQGIAELITRPGLMNVDFADVRTVMSEMGYAMMGSGVASGEDRAEEAAEMAISSPLLEDIDLSGARGVLVNITAGFDLRLDEFETVGNTIRAFASDNATVVIGTSLDPDMNDELRVTVVATGIGMDKRPEITLVTNKQVQQPVMDRYQQHGMAPLTQEQKPVAAAANDNAPQTAKEPDYLDIPAFLRKQAD
notes: source: E. coli BL21 (λDE3), purified like wild type FtsZ
binding result [10]: binds
binding result [9]: binds

B7: FtsZ(R379E) (natural protein, E. coli, UniProt P0A9A6 1-383, looked up)
chain: MFEPMELTNDAVIKVIGVGGGGGNAVEHMVRERIEGVEFFAVNTDAQALRKTAVGQTIQIGSGITKGLGAGANPEVGRNAADEDRDALRAALEGADMVFIAAGMGGGTGTGAAPVVAEVAKDLGILTVAVVTKPFNFEGKKRMAFAEQGITELSKHVDSLITIPNDKLLKVLGRGISLLDAFGAANDVLKGAVQGIAELITRPGLMNVDFADVRTVMSEMGYAMMGSGVASGEDRAEEAAEMAISSPLLEDIDLSGARGVLVNITAGFDLRLDEFETVGNTIRAFASDNATVVIGTSLDPDMNDELRVTVVATGIGMDKRPEITLVTNKQVQQPVMDRYQQHGMAPLTQEQKPVAKVVNDNAPQTAKEPDYLDIPAFLEKQAD
notes: FtsZ, Escherichia coli, substitution R379E; source: E. coli BL21 (λDE3), purified like wild type FtsZ
binding result [11]: binds

The next lines start with results.

binding result [10]: binds
B6: FtsZ(352AAA) (natural protein, E. coli, UniProt P0A9A6 1-383, looked up)
chain: MFEPMELTNDAVIKVIGVGGGGGNAVEHMVRERIEGVEFFAVNTDAQALRKTAVGQTIQIGSGITKGLGAGANPEVGRNAADEDRDALRAALEGADMVFIAAGMGGGTGTGAAPVVAEVAKDLGILTVAVVTKPFNFEGKKRMAFAEQGITELSKHVDSLITIPNDKLLKVLGRGISLLDAFGAANDVLKGAVQGIAELITRPGLMNVDFADVRTVMSEMGYAMMGSGVASGEDRAEEAAEMAISSPLLEDIDLSGARGVLVNITAGFDLRLDEFETVGNTIRAFASDNATVVIGTSLDPDMNDELRVTVVATGIGMDKRPEITLVTNKQVQQPVMDRYQQHGMAPLTQEQAAAAKVVNDNAPQTAKEPDYLDIPAFLRKQAD
notes: as for B5
binding result [11]: binds

binding result [10]: binds
B8: FtsZ(352AAA, Δ375-383) (domain or fragment, E. coli, UniProt P0A9A6 1-374, looked up)
chain: MFEPMELTNDAVIKVIGVGGGGGNAVEHMVRERIEGVEFFAVNTDAQALRKTAVGQTIQIGSGITKGLGAGANPEVGRNAADEDRDALRAALEGADMVFIAAGMGGGTGTGAAPVVAEVAKDLGILTVAVVTKPFNFEGKKRMAFAEQGITELSKHVDSLITIPNDKLLKVLGRGISLLDAFGAANDVLKGAVQGIAELITRPGLMNVDFADVRTVMSEMGYAMMGSGVASGEDRAEEAAEMAISSPLLEDIDLSGARGVLVNITAGFDLRLDEFETVGNTIRAFASDNATVVIGTSLDPDMNDELRVTVVATGIGMDKRPEITLVTNKQVQQPVMDRYQQHGMAPLTQEQAAAAKVVNDNAPQTAKEPDYLDI
notes: also called double mutant; source: E. coli BL21 (λDE3), purified like wild type FtsZ
binding result [9]: binds

binding result [10]: binds
B9: FtsZ(Δ375-383) (domain or fragment, E. coli, UniProt P0A9A6 1-374, looked up)
chain: MFEPMELTNDAVIKVIGVGGGGGNAVEHMVRERIEGVEFFAVNTDAQALRKTAVGQTIQIGSGITKGLGAGANPEVGRNAADEDRDALRAALEGADMVFIAAGMGGGTGTGAAPVVAEVAKDLGILTVAVVTKPFNFEGKKRMAFAEQGITELSKHVDSLITIPNDKLLKVLGRGISLLDAFGAANDVLKGAVQGIAELITRPGLMNVDFADVRTVMSEMGYAMMGSGVASGEDRAEEAAEMAISSPLLEDIDLSGARGVLVNITAGFDLRLDEFETVGNTIRAFASDNATVVIGTSLDPDMNDELRVTVVATGIGMDKRPEITLVTNKQVQQPVMDRYQQHGMAPLTQEQKPVAKVVNDNAPQTAKEPDYLDI
notes: Alexa-labelled in the degradation reactions, unlabelled in co-sedimentation; also called deletion mutant lacking the C-terminal nine amino acids; source: E. coli BL21 (λDE3), purified like wild type FtsZ
